From the Human Domainome abundance scans (Beltran et al. 2025)

B1: E3 ubiquitin-protein ligase NEDD4, residues 836 to 881; numbered along this chain, P46934 (parent)
chain: EIEQGFLPKGWEVRHAPNGRPFFIDHNTKTTTWEDPRLKIPAHLRG

Variants of: B1
Assay: abundance fitness (aPCA) (normalised: wild type 0, dead -1); higher = more abundant; growth selection in yeast, the domain comes from the species named
Conditions: Homo sapiens

Abundance fitness, by site and new letter:
K9: S -0.048 | N -0.112 | Y -0.316 | A -0.124 | E -0.119 | P -0.211 | F -0.825 | H -0.251
P36: W -0.954 | G -0.927 | E -0.283 | D -0.893 | S -1.09 | N -0.818 | Y -0.713 | V -0.96 | A -0.629 | Q -1.03
Q4: R -0.002 | D -0.285 | N -0.092 | P -0.116 | A -0.146 | W -0.298
A16: C -0.11 | K -0.698 | M -0.216 | E -0.387 | Y -0.657 | N -0.435
L38: N -0.166 | G -0.018 | Q -0.091
G5: R -0.123 | L -0.217 | I -0.219 | Q -0.299 | V -0.171 | S -0.068 | P -0.26 | Y 0.008
L44: A 0.08 | D 0.116 | C 0.004
N18: I -0.976 | F -0.75 | G -0.063 | P -0.255 | A -0.69 | W -0.664 | Y -0.802 | K -0.652
R14: M -0.525 | T -0.562 | W -0.458 | H -0.47 | F -0.272
R45: Y -0.072 | F -0.174 | N 0.017 | H 0.104 | D 0.104 | W -0.202 | G 0.005 | Q -0.11 | C 0.019
G19: C -0.929 | L -0.923 | P -0.695 | T -1.05 | A -0.734
D35: H -0.418 | Y -0.906 | G -0.593 | K -0.814 | I -0.895 | E -0.795 | R -0.554 | V -0.762
D25: L -0.922 | H -0.394 | N -0.261 | A -0.848 | E -0.351 | T -0.94 | M -1.15 | S -0.84 | Y -0.768
R20: T -0.207 | M -0.052 | F -0.78 | S -0.087 | N -0.271 | K 0.16 | A 0.016 | P -0.857
K29: C -0.323 | I -0.954 | A -0.237 | Y -1 | S -0.231 | T -0.577 | E -0.324 | N -0.089
F23: H -0.656 | L -0.633 | I -0.896 | S -0.856 | K -0.47
P17: N -0.308 | T -0.298 | G -0.323 | F -0.447 | W -0.419 | C -0.295 | K -0.115
T31: L -0.356 | P -0.901 | C -0.064 | H -0.578 | G -0.398 | F -0.42 | D -0.576
T28: A -0.383 | I -0.901 | P -0.823 | M -0.487 | V -0.78 | N 0.035
V13: R -0.149 | H -0.724 | N -0.836 | E 0.069 | T -0.529 | S -0.399
P41: A -0.078 | G -0.423 | E -0.167 | L -0.469 | W -0.49 | N 0.005
I2: K -0.012 | C -0.217 | Q 0.178 | H -0.326 | V -0.334
N27: S -0.302 | T -0.091 | M -0.409 | Q -0.364 | K -0.168 | D -0.12 | Y -0.593 | G -0.382 | P -0.935 | C -0.405 | H -0.543
I40: C -0.343 | G 0.028 | N -0.154 | T 0.04 | D -0.193 | A 0.002 | M -0.026
G46: A -0.249
H15: F -0.074 | R -0.004 | M -0.34 | D -0.031 | Y -0.147 | W -0.133 | I -0.051 | E -0.116 | T -0.047
H43: Q 0.007 | A -0.105 | S 0.019 | N -0.084 | P 0.094 | E 0.105 | I -0.156 | C -0.22 | T 0.059
E34: T -0.37 | P -1.08 | A -0.182 | W -0.306 | V -0.169 | H -0.172 | C -0.268 | D -0.312 | Y -0.272
W33: A -0.365 | S -0.307 | G -0.372 | N -0.431 | V -0.243 | K -0.462 | E -0.221 | R -0.506 | C -0.653
W11: I -0.459 | T -0.792 | C -0.418 | S -0.424 | A -0.79 | D -0.539 | H -0.761 | N -0.106
T32: R -0.648 | M -0.705 | G -0.619 | C -0.538 | S -0.115 | A -0.779 | D -1.05 | L -0.85 | W -0.807 | H -0.033 | V -0.456 | Y -0.564
F6: I 0.372 | T 0.202 | L 0.051 | K 0.117 | Q -0.297 | C 0.265 | D 0.241 | W -0.063 | V 0.038
A42: D -0.111 | Q 0.02 | V -0.128 | F -0.223 | W -0.316 | N -0.015 | L -0.147 | C -0.135 | S -0.092 | Y -0.252 | E 0.027
P21: M -0.218 | K 0.027 | T -0.451 | S -0.233 | L -0.131
T30: G -0.595 | F -0.466 | Q -0.216 | K -0.133 | V -0.202 | I -0.056 | Y -0.818
G10: D -0.81 | V -0.816 | F -0.6 | Y -0.781 | T -1 | P -0.829 | R -0.627 | N -0.12 | H -0.493 | E -0.605 | K -0.886 | M -0.854
E12: Q -0.307 | P -0.967 | S -0.278 | W -0.692 | G -0.882 | V -0.526 | C -0.758 | H -0.227 | L -0.942
E3: R -0.366 | Y -0.07 | V -0.162 | M -0.073 | A -0.251 | L -0.421 | K -0.096 | W -0.35
R37: S -0.472 | L -0.399 | H -0.268 | T -0.256 | G -0.586 | M -0.364
H26: C -0.388 | K -0.342 | R -0.45 | G -0.501 | L -0.507 | E -0.591
F22: H -0.844 | Q -0.239 | C -0.122 | D -0.35 | E -0.393 | K -0.702 | A -0.688 | N -0.774 | S -0.797
P8: M -0.692 | T -0.432 | I -0.623 | C -0.969 | N -0.611 | V -0.96 | R -0.648 | K 0.223 | E -0.594
E1: A -0.259 | G -0.27
L7: K -0.601 | E -0.437 | N -1.01 | H -0.543 | S -0.573 | Q -0.38 | I -0.493
I24: Q -0.947 | F -0.522 | N -0.715 | A -0.818 | P -0.929
K39: A -0.085 | F -0.421 | E 0.062 | R 0.003 | G -0.065 | M -0.101 | I -0.297 | S -0.098
